Patent US20040005554A1 (APPLIED RESEARCH SYSTEMS ARS HOLDING N V, published 2004)

Target: the molecule itself
Assay: SDS-PAGE (silver stain) and anti-FLAG western blot of immunoaffinity-purified protein, with and without reduction

B1: FLAG-BRP fusion protein (N-terminal FLAG tag on predicted mature human BRP, secreted through the mouse preprotrypsin signal) (other)
chain: DYKDDDDKASSGNLRTFVGCAVREFTFLAKKPGCRGLRITTDACWGRCETWEKPILEPPYIEAHHRVCTYNETKQVTVKLPNCAPGVDPFYTYPVAIRCDCGACSTATTECETI
notes: The BRP part comes from BRP-NTAP (BRP without the secretory signal peptide); also called FLAG-BRP in pCEP4
- binding result: binds
